The record followed here is patent USRE46376 (Wyeth LLC, dated 2017).

Test [1] has as its target wild-type C. difficile toxin B (TcdB) (Clostridium difficile strain 630, UniProt P18177 2-2366). As to the kind of experiment: binding specificity, Table 18.
In test [2] the target is Commercial, Control Toxin B wt (List Biologicals) (Clostridium difficile, UniProt P18177 2-2366). The test is described as follows: dot blot, non-denaturing conditions.
Sequence of Commercial, Control Toxin B wt (List Biologicals) (P18177 2-2366 limits assumed): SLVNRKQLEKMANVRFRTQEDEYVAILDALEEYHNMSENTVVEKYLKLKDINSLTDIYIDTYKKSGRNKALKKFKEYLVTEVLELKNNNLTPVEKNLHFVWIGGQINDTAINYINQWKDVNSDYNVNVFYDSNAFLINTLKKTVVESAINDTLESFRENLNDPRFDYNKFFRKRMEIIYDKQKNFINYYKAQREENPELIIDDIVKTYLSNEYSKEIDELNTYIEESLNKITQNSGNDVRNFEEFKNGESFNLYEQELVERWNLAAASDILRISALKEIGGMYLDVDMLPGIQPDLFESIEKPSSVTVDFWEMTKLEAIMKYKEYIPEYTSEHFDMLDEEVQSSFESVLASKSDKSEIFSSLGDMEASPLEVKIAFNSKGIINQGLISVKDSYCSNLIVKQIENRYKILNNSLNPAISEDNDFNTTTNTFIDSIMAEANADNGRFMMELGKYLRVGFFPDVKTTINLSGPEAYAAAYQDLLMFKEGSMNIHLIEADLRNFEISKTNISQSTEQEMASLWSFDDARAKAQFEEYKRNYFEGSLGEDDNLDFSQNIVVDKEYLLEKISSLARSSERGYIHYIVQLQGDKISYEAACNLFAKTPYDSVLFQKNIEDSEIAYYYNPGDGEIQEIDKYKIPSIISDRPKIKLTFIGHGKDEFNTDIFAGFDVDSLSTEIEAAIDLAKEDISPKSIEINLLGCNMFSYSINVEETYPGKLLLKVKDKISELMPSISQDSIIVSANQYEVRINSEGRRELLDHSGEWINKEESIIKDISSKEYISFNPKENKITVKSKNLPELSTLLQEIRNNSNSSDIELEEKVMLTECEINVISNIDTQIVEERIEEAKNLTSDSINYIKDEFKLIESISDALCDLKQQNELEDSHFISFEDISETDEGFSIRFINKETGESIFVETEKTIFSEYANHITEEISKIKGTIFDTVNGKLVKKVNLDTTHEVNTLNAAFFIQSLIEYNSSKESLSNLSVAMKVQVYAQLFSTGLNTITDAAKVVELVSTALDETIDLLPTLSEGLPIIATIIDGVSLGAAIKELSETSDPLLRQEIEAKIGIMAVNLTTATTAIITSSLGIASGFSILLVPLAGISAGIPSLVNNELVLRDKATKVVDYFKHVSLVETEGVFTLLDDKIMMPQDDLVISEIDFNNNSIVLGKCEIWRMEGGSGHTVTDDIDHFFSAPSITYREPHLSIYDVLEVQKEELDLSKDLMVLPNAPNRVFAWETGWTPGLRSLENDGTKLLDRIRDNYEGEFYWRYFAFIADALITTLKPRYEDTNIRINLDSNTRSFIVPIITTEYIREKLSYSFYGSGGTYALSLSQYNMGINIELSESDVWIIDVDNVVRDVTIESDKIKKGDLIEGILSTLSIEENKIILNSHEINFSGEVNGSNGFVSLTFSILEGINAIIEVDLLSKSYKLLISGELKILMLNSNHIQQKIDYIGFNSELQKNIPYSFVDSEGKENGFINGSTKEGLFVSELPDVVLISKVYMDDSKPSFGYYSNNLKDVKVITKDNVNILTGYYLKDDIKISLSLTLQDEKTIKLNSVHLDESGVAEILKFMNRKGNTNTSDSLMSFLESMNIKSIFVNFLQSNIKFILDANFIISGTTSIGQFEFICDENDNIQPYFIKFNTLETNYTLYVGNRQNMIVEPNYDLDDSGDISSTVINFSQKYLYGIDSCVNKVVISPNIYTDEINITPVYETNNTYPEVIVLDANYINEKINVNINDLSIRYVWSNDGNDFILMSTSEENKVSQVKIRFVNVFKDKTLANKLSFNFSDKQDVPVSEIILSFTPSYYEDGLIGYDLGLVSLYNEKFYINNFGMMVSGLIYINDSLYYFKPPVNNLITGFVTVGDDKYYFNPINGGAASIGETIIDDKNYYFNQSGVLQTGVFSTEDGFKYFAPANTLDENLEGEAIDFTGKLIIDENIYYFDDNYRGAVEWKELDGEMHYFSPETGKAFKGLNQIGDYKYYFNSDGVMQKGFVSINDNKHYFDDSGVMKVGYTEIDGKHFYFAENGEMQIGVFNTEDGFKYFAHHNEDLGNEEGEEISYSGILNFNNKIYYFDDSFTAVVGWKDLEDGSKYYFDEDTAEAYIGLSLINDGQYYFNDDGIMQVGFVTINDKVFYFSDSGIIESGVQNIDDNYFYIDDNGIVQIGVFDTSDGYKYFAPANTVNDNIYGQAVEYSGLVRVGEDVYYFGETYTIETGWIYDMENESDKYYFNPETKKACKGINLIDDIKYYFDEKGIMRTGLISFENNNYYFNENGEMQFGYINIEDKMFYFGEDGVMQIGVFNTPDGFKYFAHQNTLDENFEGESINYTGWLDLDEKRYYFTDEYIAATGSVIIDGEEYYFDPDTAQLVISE

Sequence of wild-type C. difficile toxin B (TcdB) (P18177 2-2366 limits assumed): as above

B1: B9-30 mAb (antibody, V domains shown)
VH: QVQLQQPGAEVVKPGAPVKLSCKASGYPFTNYWMNWVKQRPGRGLEWIGRIDPSNSEIYYNQKFKDKATLTVDKSSSTAYIQLSSLTSEDSAVYYCASGHYGSIFAYWGQGTTLTVSS
VL: VQITQSPSYLAASPGETITINCRASKSISKYLAWYQEKPGKTNKLLIYSGSTLQSGIPSRFSGSRSGTDFTLIISSLEPEDSAMYYCQQHNEYPLTFGAGTKLELKR
On to B1, for which the binding result in test [1] is recorded as “binds”.

B2: B9-30 mAb (C. difficile TcdB neutralizing antibody) (antibody, V domains shown)
VH: B1 VH
VL: B1 VL
With B2, in test [2], the binding result is on record as “binds”.
